According to article PMC2613882, “The FF domains of yeast U1 snRNP protein Prp40 mediate interactions with Luc7 and Snu71” (BMC Biochemistry, 2008):

T1: GST-Prp40FF1 (amino acids 129-201) (Saccharomyces cerevisiae, UniProt P33203 129-201)
T1 construct: Prp40, S. cerevisiae, residues 129-201 (Prp40FF1); also called GST-FF1; source: E. coli BL21, purified (glutathione Sepharose 4B)
T1 sequence (looked up): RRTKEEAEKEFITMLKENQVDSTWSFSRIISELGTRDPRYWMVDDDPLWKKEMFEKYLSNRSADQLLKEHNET

T2: GST-Prp40FF1-2 (amino acids 129-264) (Saccharomyces cerevisiae, UniProt P33203 129-264)
T2 construct: Prp40, S. cerevisiae, residues 129-264 (Prp40FF1-2); also called GST-FF1-2; source: E. coli BL21, purified (glutathione Sepharose 4B)
T2 sequence (looked up): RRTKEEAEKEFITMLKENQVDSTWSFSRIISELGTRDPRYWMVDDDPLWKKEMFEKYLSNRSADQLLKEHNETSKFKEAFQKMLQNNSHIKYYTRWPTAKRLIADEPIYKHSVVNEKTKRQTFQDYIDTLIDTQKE


Experiments:
[1] = target: T1, GST-Prp40FF1 (amino acids 129-201); assay: peptide or protein array; SPOT 15-mer peptides (3 aa shifts; alanine scan and substitution analysis of A24) on a β-alanine membrane, probed overnight at 4°C with 10 μg/ml purified GST fusion protein, detected with anti-GST antibody; conditions: both partners purified
[2] = target: T2, GST-Prp40FF1-2 (amino acids 129-264); assay: as above; conditions: both partners purified

| Binder | binding result [1] | binding result [2] |
| --- | --- | --- |
| DRRLADHFLGKIHLG (also called A24 peptide) [Luc7 peptide A24, D214RRLADHFLGKIHLG228] | binds | binds |
| HLANDVHYDHHRSFK (Snu71, S. cerevisiae, residues 418-432) [Snu71 peptide B1, H418LANDVHYDHHRSFK432] |  | binds |
